# Measurements reported in PMC8108093 (Cell, 2018).
# B1: RINN1_(28–83), recombinant (domain or fragment, human, UniProt Q6ZNX1 28-83, looked up)
# chain: QDFPTRPLSRFIPWFPYDGSKLPLRPKRSPPVISEEAAEDVKQYLTISEHDAKSHS
# Target: His6-REV7_(R124A), recombinant (human, UniProt Q9UI95 1-211, R124A)
# Experiment: ITC
# Sequence of His6-REV7_(R124A), recombinant (Q9UI95 whole entry R124A): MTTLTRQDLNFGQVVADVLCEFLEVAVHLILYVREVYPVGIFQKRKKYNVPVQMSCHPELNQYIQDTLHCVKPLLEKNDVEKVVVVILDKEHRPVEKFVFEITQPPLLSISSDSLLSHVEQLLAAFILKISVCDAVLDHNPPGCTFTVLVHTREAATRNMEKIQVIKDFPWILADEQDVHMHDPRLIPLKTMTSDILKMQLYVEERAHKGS
binder,measurement,value
B1,Kd,15.8 nM
